From patent US20040253612A1

Experiments:
[1] = molecular target: anti-myc monoclonal antibody (doped selection experiment); test: immunoprecipitation; PCR and restriction digest before and after selection
[2] = molecular target: anti-myc monoclonal antibody (doped selection experiment); test: second set of digests, method 2; sample equivalent to lane 2 (1:20 myc:pool)
[3] = molecular target: anti-myc monoclonal antibody (doped selection experiment); test: second set of digests, method 2; sample equivalent to lane 3 (1:200 myc:pool)
[4] = molecular target: anti-myc monoclonal antibody (doped selection experiment); test: second set of digests, method 2; sample equivalent to lane 4 (1:2000 myc:pool)
[5] = molecular target: anti-myc monoclonal antibody (doped selection experiment); test: immunoprecipitation from 1:20 myc:pool (LP154:LP160); PCR, AlwnI digest, phosphorimager; background method 1
[6] = molecular target: anti-myc monoclonal antibody (doped selection experiment); test: immunoprecipitation from 1:20 myc:pool (LP154:LP160); PCR, AlwnI digest, phosphorimager; background method 2
[7] = molecular target: anti-myc monoclonal antibody (doped selection experiment); test: immunoprecipitation from 1:20 myc:pool (LP154:LP160); PCR, AlwnI digest, phosphorimager; background method 3
[8] = molecular target: anti-myc monoclonal antibody (doped selection experiment); test: immunoprecipitation from 1:200 myc:pool (LP154:LP160); PCR, AlwnI digest, phosphorimager; background method 1
[9] = molecular target: anti-myc monoclonal antibody (doped selection experiment); test: immunoprecipitation from 1:200 myc:pool (LP154:LP160); PCR, AlwnI digest, phosphorimager; background method 2
[10] = molecular target: anti-myc monoclonal antibody (doped selection experiment); test: immunoprecipitation from 1:200 myc:pool (LP154:LP160); PCR, AlwnI digest, phosphorimager; background method 3
[11] = molecular target: anti-myc monoclonal antibody (doped selection experiment); test: immunoprecipitation from 1:2000 myc:pool (LP154:LP160); PCR, AlwnI digest, phosphorimager; background method 1
[12] = molecular target: anti-myc monoclonal antibody (doped selection experiment); test: immunoprecipitation from 1:2000 myc:pool (LP154:LP160); PCR, AlwnI digest, phosphorimager; background method 2
[13] = molecular target: anti-myc monoclonal antibody (doped selection experiment); test: immunoprecipitation from 1:2000 myc:pool (LP154:LP160); PCR, AlwnI digest, phosphorimager; background method 3

B1: RNA-protein fusion LP154 (long myc template fusion) (peptide)
peptide: MAEEQKLISEEDLLRKRREQLKHKLEQLRNSCA
modifications: C-terminus joined by an amide bond to the 3' puromycin of its own mRNA-DNA linker template LP154 (SEQ ID NO: 3)
enrichment (fold) relative to the random library [1]: 20 to 40 fold | enrichment (fold) of myc template vs. pool [2]: 10.7 fold | enrichment (fold) of myc template vs. pool [3]: 38 fold | enrichment (fold) of myc template vs. pool [4]: 12 fold | Enrichment of Myc Template vs. Pool [5]: 7 fold | Enrichment of Myc Template vs. Pool [6]: 10.4 fold | Enrichment of Myc Template vs. Pool [7]: 8.7 fold | Enrichment of Myc Template vs. Pool [8]: 16.6 fold | Enrichment of Myc Template vs. Pool [9]: 43 fold | Enrichment of Myc Template vs. Pool [10]: 27 fold | Enrichment of Myc Template vs. Pool [11]: 5.7 fold | Enrichment of Myc Template vs. Pool [12]: 39 fold | Enrichment of Myc Template vs. Pool [13]: 10.2 fold
